Results reported in publication PMC10598214, “SaLT&PepPr is an interface-predicting language model for designing peptide-guided protein degraders” (Communications Biology, 2023).

Biological target: T1, β-catenin (UniProt P35222 1-781)
T1 sequence (looked up): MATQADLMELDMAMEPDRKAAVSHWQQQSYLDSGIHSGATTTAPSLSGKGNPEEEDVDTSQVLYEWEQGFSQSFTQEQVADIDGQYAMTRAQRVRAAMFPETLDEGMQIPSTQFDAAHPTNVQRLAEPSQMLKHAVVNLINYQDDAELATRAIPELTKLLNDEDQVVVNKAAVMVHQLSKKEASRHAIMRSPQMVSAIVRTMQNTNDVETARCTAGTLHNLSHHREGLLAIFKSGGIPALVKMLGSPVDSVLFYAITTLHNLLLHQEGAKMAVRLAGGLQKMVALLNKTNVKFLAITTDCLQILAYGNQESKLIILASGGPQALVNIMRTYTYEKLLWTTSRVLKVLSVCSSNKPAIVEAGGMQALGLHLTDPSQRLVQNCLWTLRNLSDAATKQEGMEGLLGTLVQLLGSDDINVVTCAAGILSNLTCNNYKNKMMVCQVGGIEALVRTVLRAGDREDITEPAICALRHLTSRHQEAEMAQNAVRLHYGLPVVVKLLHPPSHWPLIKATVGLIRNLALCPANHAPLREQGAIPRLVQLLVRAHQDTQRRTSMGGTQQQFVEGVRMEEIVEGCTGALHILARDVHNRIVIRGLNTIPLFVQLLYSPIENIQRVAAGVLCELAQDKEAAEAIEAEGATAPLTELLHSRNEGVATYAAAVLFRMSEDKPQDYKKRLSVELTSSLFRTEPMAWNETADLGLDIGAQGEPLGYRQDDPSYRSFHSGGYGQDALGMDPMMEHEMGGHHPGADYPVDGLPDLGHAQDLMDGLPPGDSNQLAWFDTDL
Test: cell-based or functional assay

degradation of endogenous cytosolic β-catenin in transfected DLD1 cells (immunoblot densitometry, relative to non-transfected control): > 60%
B1: SnP_8 uAb (designed binder)
chain: PTAPPYDSLLVFDYEGGSGSGRLNFGDDIPSALRIAKKKRWNSIEERRIHQESELHSYLSRLIAAERERELEECQRNHEGDEDDSHVRAQQACIEAKHDKYMADMDELFSQVDEKRKKRDIPDYLCGKISFELMREPCITPSGITYDRKDIEEHLQRVGHFDPVTRSPLTQEQLIPNLAMKEVIDAFISENGWVEDY
modifications: biotinylated with EZ-Link NHS-Biotin
